Patent EP2149585A1
Where two headings read alike, the source gives them in different places.

Legend:
Experiment in all cases: cell-based or functional assay
[1] = molecular target: human CD40 on normal human B cells / PBMC (human) (UniProt P25942)
[2] = molecular target: human CD40 on B cells within PBMC from normal human subjects (human) (UniProt P25942)
[3] = molecular target: human CD40 on B cells in PBMC from normal human subjects (human) (UniProt P25942)
[4] = molecular target: human CD40 on normal human B cells / PBMC (human) (UniProt P25942); remark: listed apart in the source
[5] = molecular target: human CD40 on the cell surface (human) (UniProt P25942)
Sequence of human CD40 on the cell surface (human) (P25942 20-277): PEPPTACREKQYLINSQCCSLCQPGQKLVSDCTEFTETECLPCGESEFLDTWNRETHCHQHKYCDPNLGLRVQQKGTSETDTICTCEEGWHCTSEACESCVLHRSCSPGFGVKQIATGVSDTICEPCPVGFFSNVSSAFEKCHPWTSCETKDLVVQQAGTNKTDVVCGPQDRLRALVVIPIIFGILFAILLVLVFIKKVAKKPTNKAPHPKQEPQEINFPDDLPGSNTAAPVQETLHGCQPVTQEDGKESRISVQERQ

[6] = molecular target: CD20 on the cell surface (human) (UniProt P11836)
Sequence of CD20 on the cell surface (human) (P11836 whole entry): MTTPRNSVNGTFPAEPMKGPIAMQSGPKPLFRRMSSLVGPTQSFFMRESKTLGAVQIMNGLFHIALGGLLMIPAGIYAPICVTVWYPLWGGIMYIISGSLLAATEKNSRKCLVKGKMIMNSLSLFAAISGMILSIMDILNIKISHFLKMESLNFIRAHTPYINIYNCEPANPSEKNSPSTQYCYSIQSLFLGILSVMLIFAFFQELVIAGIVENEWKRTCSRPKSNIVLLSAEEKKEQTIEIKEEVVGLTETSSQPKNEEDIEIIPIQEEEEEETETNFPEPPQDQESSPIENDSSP

Sequence of human CD40 on B cells in PBMC from normal human subjects (human) (P25942 20-277): as the sequence (P25942 20-277) above
Sequence of human CD40 on normal human B cells / PBMC (human) (P25942 20-277): as above
Sequence of human CD40 on B cells within PBMC from normal human subjects (human) (P25942 20-277): as above

CD40 ligand expressed on formaldehyde-fixed CHO cells (from UniProt P29965 1-261)
CPM, B cells + CHO-CD40L; B cell-004 donor 2 [1]: 27200 CPM
CPM, B cells+CHO-CD40L; B cell-004 donor 1 [1]: 3130 CPM
CPM, B cells+CHO-CD40L; B cell-005 donor 3 [1]: 24600 CPM
CPM, PBMC+CHO-CD40L (tritiated thymidine); PBMC-025 Donor#1 [1]: 42300 CPM
CPM, PBMC+CHO-CD40L (tritiated thymidine); PBMC-025 Donor#2 [1]: 15000 CPM
CPM, PBMC+CHO-CD40L (tritiated thymidine); PBMC-026 Donor#1 [1]: 19100 CPM
CPM, PBMC+CHO-CD40L (tritiated thymidine); PBMC-026 Donor#2 [1]: 17800 CPM
CPM, PBMC+CHO-CD40L (tritiated thymidine); PBMC-028 Donor#1 [1]: 22500 CPM
CPM, PBMC+CHO-CD40L (tritiated thymidine); PBMC-028 Donor#2 [1]: 54900 CPM
CPM, PBMC+CHO-CD40L (tritiated thymidine); PBMC-029 Donor#1 [1]: 10100 CPM
CPM, PBMC+CHO-CD40L (tritiated thymidine); PBMC-029 Donor#2 [1]: 23100 CPM
CPM, PBMC+CHO-CD40L (tritiated thymidine); PBMC-030 Donor#1 [1]: 53400 CPM
CPM, PBMC+CHO-CD40L (tritiated thymidine); PBMC-030 Donor#2 [1]: 53800 CPM
CPM, PBMC+CHO-CD40L (tritiated thymidine); PBMC-032 Donor#1 [1]: 14100 CPM
Average SI of PBMC, index(1) [2]: 11.9
Average Stimulation index, S.index (1) [2]: 22
PBMC proliferation CPM (PBMC+CHO-CD40L), Immoblize-004 [2]: 11700 CPM
PBMC proliferation CPM (PBMC+CHO-CD40L), PBMC-012 [2]: 6810 CPM
PBMC proliferation CPM (PBMC+CHO-CD40L), PBMC-025 Donor#1 [2]: 42300 CPM
PBMC proliferation CPM (PBMC+CHO-CD40L), PBMC-025 Donor#2 [2]: 15000 CPM
PBMC proliferation CPM (PBMC+CHO-CD40L), PBMC-026 Donor#1 [2]: 18300 CPM
PBMC proliferation CPM (PBMC+CHO-CD40L), PBMC-026 Donor#2 [2]: 18100 CPM
PBMC proliferation CPM (PBMC+CHO-CD40L), PBMC-027 Donor#1 [2]: 13000 CPM
PBMC proliferation CPM (PBMC+CHO-CD40L), PBMC-027 Donor#2 [2]: 11900 CPM
PBMC proliferation CPM (PBMC+CHO-CD40L), PBMC-028 Donor#1 [2]: 22500 CPM
PBMC proliferation CPM (PBMC+CHO-CD40L), PBMC-028 Donor#2 [2]: 54900 CPM
PBMC proliferation CPM (PBMC+CHO-CD40L), PBMC-029 Donor#1 [2]: 10100 CPM
PBMC proliferation CPM (PBMC+CHO-CD40L), PBMC-029 Donor#2 [2]: 23100 CPM
PBMC proliferation CPM (PBMC+CHO-CD40L), PBMC-030 Donor#1 [2]: 57200 CPM
PBMC proliferation CPM (PBMC+CHO-CD40L), PBMC-030 Donor#2 [2]: 53900 CPM
PBMC proliferation CPM (PBMC+CHO-CD40L), PBMC-032 Donor#1 [2]: 15300 CPM
PBMC proliferation S.index (1), Immoblize-004 [2]: 13.7
PBMC proliferation S.index (1), PBMC-012 [2]: 30.3
PBMC proliferation index(1), PBMC-025 Donor#1 [2]: 10.4
PBMC proliferation index(1), PBMC-025 Donor#2 [2]: 6.63
PBMC proliferation index(1), PBMC-026 Donor#1 [2]: 8.78
PBMC proliferation index(1), PBMC-026 Donor#2 [2]: 26.7
PBMC proliferation index(1), PBMC-027 Donor#1 [2]: 4.75
PBMC proliferation index(1), PBMC-027 Donor#2 [2]: 8.89
PBMC proliferation index(1), PBMC-028 Donor#1 [2]: 5.26
PBMC proliferation index(1), PBMC-028 Donor#2 [2]: 25.6
PBMC proliferation index(1), PBMC-029 Donor#1 [2]: 16.5
PBMC proliferation index(1), PBMC-029 Donor#2 [2]: 2.99
PBMC proliferation index(1), PBMC-030 Donor#1 [2]: 13.7
PBMC proliferation index(1), PBMC-030 Donor#2 [2]: 16.2
PBMC proliferation index(1), PBMC-032 Donor#1 [2]: 8.45
Average SI of PBMC, index(1), PBMC+CHO-CD40L [3]: 5.09
CPM, PBMC+CHO-CD40L (PBMC-010) [3]: 5280 CPM
CPM, PBMC+CHO-CD40L (PBMC-011 Donor#1) [3]: 8250 CPM
CPM, PBMC+CHO-CD40L (PBMC-011 Donor#2) [3]: 11600 CPM
CPM, PBMC+CHO-CD40L (PBMC-011 Donor#3) [3]: 7960 CPM
CPM, PBMC+CHO-CD40L (PBMC-011 Donor#4) [3]: 14300 CPM
CPM, PBMC+CHO-CD40L (PBMC-014) [3]: 8790 CPM
CPM, PBMC+CHO-CD40L (PBMC-015 Donor#1) [3]: 12900 CPM
CPM, PBMC+CHO-CD40L (PBMC-015 Donor#2) [3]: 19100 CPM
CPM, PBMC+CHO-CD40L (PBMC-015 Donor#3) [3]: 19800 CPM
CPM, PBMC+CHO-CD40L (PBMC-016) [3]: 15800 CPM
index(1), PBMC+CHO-CD40L (PBMC-010) [3]: 3.73
index(1), PBMC+CHO-CD40L (PBMC-011 Donor#1) [3]: 3.86
index(1), PBMC+CHO-CD40L (PBMC-011 Donor#2) [3]: 4.87
index(1), PBMC+CHO-CD40L (PBMC-011 Donor#3) [3]: 2.46
index(1), PBMC+CHO-CD40L (PBMC-011 Donor#4) [3]: 3.41
index(1), PBMC+CHO-CD40L (PBMC-014) [3]: 3.74
index(1), PBMC+CHO-CD40L (PBMC-015 Donor#1) [3]: 3.94
index(1), PBMC+CHO-CD40L (PBMC-015 Donor#2) [3]: 3.14
index(1), PBMC+CHO-CD40L (PBMC-015 Donor#3) [3]: 8
index(1), PBMC+CHO-CD40L (PBMC-016) [3]: 13.8
Average Stimulation Index (SI), B cells+CHO-CD40L [4]: 145
CPM, B cells+CHO-CD40L; B cell-004 donor 1 [4]: 3130 CPM
CPM, B cells+CHO-CD40L; B cell-005 donor 3 [4]: 24600 CPM
CPM, B cells+CHO-CD40L; donor 2 [4]: 27200 CPM
S. index(1) = CPM (B cells+CHO-CD40L)/CPM (B cells alone); B cell-004 donor 1 [4]: 7.49
S. index(1) = CPM (B cells+CHO-CD40L)/CPM (B cells alone); B cell-005 donor 3 [4]: 92
S. index(1) = CPM (B cells+CHO-CD40L)/CPM (B cells alone); donor 2 [4]: 336

CD40 ligand on formaldehyde-fixed CHO cells (from UniProt P29965 1-261)
average stimulation index (SI) of PBMC proliferation [5]: 7.41

rituximab (antibody)
% lysis - % lysis IgG1; ADCC-006, huNK E:T 2, 0.01 ug/ml [6]: 33%
% lysis - % lysis IgG1; ADCC-006, huNK E:T 2, 0.1 ug/ml [6]: 44.6%
% lysis - % lysis IgG1; ADCC-006, huNK E:T 2, 1 ug/ml [6]: 45.7%
% lysis - % lysis IgG1; ADCC-006, huNK E:T 2, 10 ug/ml [6]: 37.9%
% lysis - % lysis IgG1; ADCC-009 Calcein AM, huNK E:T 10, 0.04 ug/ml [6]: 81.5%
% lysis - % lysis IgG1; ADCC-009 Calcein AM, huNK E:T 10, 0.2 ug/ml [6]: 90.2%
% lysis - % lysis IgG1; ADCC-009 Calcein AM, huNK E:T 10, 1 ug/ml [6]: 87.7%
% lysis - % lysis IgG1; ADCC-009 Calcein AM, huNK E:T 10, 5 ug/ml [6]: 83.9%
% lysis - % lysis IgG1; ADCC-011 Calcein AM, huNK E:T 8, 0.0004 ug/ml [6]: -1.04%
% lysis - % lysis IgG1; ADCC-011 Calcein AM, huNK E:T 8, 0.002 ug/ml [6]: 4.16%
% lysis - % lysis IgG1; ADCC-011 Calcein AM, huNK E:T 8, 0.01 ug/ml [6]: 10.1%
% lysis - % lysis IgG1; ADCC-011 Calcein AM, huNK E:T 8, 1 ug/ml [6]: 19.3%
% lysis - % lysis IgG1; ADCC-012 Calcein AM, huNK E:T 10, 0.001 ug/ml [6]: 21.1%
% lysis - % lysis IgG1; ADCC-012 Calcein AM, huNK E:T 10, 0.005 ug/ml [6]: 25.7%
% lysis - % lysis IgG1; ADCC-012 Calcein AM, huNK E:T 10, 0.01 ug/ml [6]: 37.9%
% lysis - % lysis IgG1; ADCC-012 Calcein AM, huNK E:T 10, 1 ug/ml [6]: 52.5%
% lysis - % lysis IgG1; ADCC-012 Calcein AM, huNK E:T 10, 10 ug/ml [6]: 37.4%
% lysis - % lysis IgG1; ADCC-013 51Cr, PBMC E:T 100, 0.001 ug/ml [6]: 0.35%
% lysis - % lysis IgG1; ADCC-013 51Cr, PBMC E:T 100, 0.01 ug/ml [6]: 9.87%
% lysis - % lysis IgG1; ADCC-013 51Cr, PBMC E:T 100, 0.1 ug/ml [6]: 24.7%
% lysis - % lysis IgG1; ADCC-013 51Cr, PBMC E:T 100, 1 ug/ml [6]: 29.7%
% lysis; ADCC-006, huNK E:T 2, 0.01 ug/ml [6]: 28.5%
% lysis; ADCC-006, huNK E:T 2, 0.1 ug/ml [6]: 33.6%
% lysis; ADCC-006, huNK E:T 2, 1 ug/ml [6]: 37.1%
% lysis; ADCC-006, huNK E:T 2, 10 ug/ml [6]: 34.8%
% lysis; ADCC-009 Calcein AM, huNK E:T 10, 0.04 ug/ml [6]: 84.9%
% lysis; ADCC-009 Calcein AM, huNK E:T 10, 0.2 ug/ml [6]: 88.8%
% lysis; ADCC-009 Calcein AM, huNK E:T 10, 1 ug/ml [6]: 88.2%
% lysis; ADCC-011 Calcein AM, huNK E:T 8, 0.0004 ug/ml [6]: 5.99%
% lysis; ADCC-011 Calcein AM, huNK E:T 8, 0.002 ug/ml [6]: 9.58%
% lysis; ADCC-011 Calcein AM, huNK E:T 8, 0.01 ug/ml [6]: 14.7%
% lysis; ADCC-011 Calcein AM, huNK E:T 8, 1 ug/ml [6]: 22.4%
% lysis; ADCC-012 Calcein AM, huNK E:T 10, 0.001 ug/ml [6]: 33.1%
% lysis; ADCC-012 Calcein AM, huNK E:T 10, 0.005 ug/ml [6]: 39.3%
% lysis; ADCC-012 Calcein AM, huNK E:T 10, 0.01 ug/ml [6]: 50.2%
% lysis; ADCC-012 Calcein AM, huNK E:T 10, 1 ug/ml [6]: 66%
% lysis; ADCC-012 Calcein AM, huNK E:T 10, 10 ug/ml [6]: 50.8%
% lysis; ADCC-013 51Cr, PBMC E:T 100, 0.001 ug/ml [6]: 3.13%
% lysis; ADCC-013 51Cr, PBMC E:T 100, 0.01 ug/ml [6]: 12.8%
% lysis; ADCC-013 51Cr, PBMC E:T 100, 0.1 ug/ml [6]: 27.2%
% lysis; ADCC-013 51Cr, PBMC E:T 100, 1 ug/ml [6]: 32.3%
Average % lysis at 1 ug/ml concentration of mAbs (% lysis - % lysis IgG1) [6]: 47.2%
